T1: CEACAM1 antigen (Diatheva) (UniProt P13688 35-428, limits assumed)
T1 construct: Purchased antigen; also called CEA Cell Adhesion Molecule 1
T1 sequence (looked up): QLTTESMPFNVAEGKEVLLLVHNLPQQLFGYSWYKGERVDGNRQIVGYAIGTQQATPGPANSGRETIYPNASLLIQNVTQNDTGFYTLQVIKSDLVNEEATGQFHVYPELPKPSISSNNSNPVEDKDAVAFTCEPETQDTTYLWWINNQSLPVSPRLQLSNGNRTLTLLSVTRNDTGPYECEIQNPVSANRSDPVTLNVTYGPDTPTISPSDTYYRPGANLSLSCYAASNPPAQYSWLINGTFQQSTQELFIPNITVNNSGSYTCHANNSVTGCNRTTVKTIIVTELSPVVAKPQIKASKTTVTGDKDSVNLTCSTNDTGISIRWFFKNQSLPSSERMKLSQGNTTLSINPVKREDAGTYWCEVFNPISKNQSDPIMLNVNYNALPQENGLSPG


Legend:
[1] = target: T1, CEACAM1 antigen (Diatheva); assay: ELISA titration on coated CEACAM1; detection with anti-His6 and anti-mouse HRP
Method: 96 wells microtiter plates (MAXISORB NUNC) were coated with 100 μl/well of CEACAM1 antigen (Diatheva) solution 1 μg/ml diluted in PBS pH 7.3 and incubated overnight (ON) at 37° C. Plates were washed five times with PBS added with 0.05% (v/v) Tween 20 pH 7.3 (PBST) (the same washing procedure was repeated after each incubation step during the assays) and then blocked with 1% (w/v) BSA dissolved in PBS (150 μl/well) and maintained at 37° C. for 60 min. After washing, serial dilutions of IgG1 or IgG4 in PBS containing 2% (w/v) not-fat dry milk (PBSM) were added to the plate (100 μl/well) and incubated for 90 min at 37° C. […] Finally, the detection was performed after addition of 2,2′-azino-bis(3-ethylbenzthiazoline-6-sulphonic acid) (ABTS; Roche, 10102946001) as substrate. The absorbance values were read by a microplate reader (Bio-Rad Laboratories) at 405 nm after 45 min. In FIG. 4 are reported the results obtained with IgG1 (black line) and IgG4 (grey line) antibodies purified after transient expression in HEK293T cells. The absorbance of the mock sample is shown by the dotted line. The ELISA assay highlighted a higher affinity for the CEACAM1 antigen of the antibody belonging to the IgG1 subclass compared to the same antibody with the IgG4 (S228P) constant region. […]

[2] = target: T1, CEACAM1 antigen (Diatheva); assay: ELISA titration on coated CEACAM1; EC50 of the scFv against that of IgG1 clone 12
[3] = target: T1, CEACAM1 antigen (Diatheva); assay: ELISA titration on coated CEACAM1; EC50 of the scFv against that of IgG4 clone 2
[4] = target: T1, CEACAM1 antigen (Diatheva); assay: ELISA titration on coated CEACAM1; antibody from stable clone 2
Method: 96 wells microtiter plates (MAXISORB NUNC) were coated with 100 μl/well of CEACAM1 antigen (Diatheva) solution 1 μg/ml diluted in PBS pH 7.3 and incubated overnight (ON) at 37° C. Plates were washed five times with PBS added with 0.05% (v/v) Tween 20 pH 7.3 (PBST) (the same washing procedure was repeated after each incubation step during the assays) and then blocked with 1% (w/v) BSA dissolved in PBS (150 μl/well) and maintained at 37° C. for 60 min. After washing, serial dilutions of IgG1 or IgG4 in PBS containing 2% (w/v) not-fat dry milk (PBSM) were added to the plate (100 μl/well) and incubated for 90 min at 37° C. After washes, plates were incubated at 37° C. for 60 min with an anti-human Fc antibody HRP conjugated (Meridian) diluted 1:500 v/v in PBSM. Finally, the detection was performed after addition of 2,2′-azino-bis(3-ethylbenzthiazoline-6-sulphonic acid) (ABTS; Roche, 10102946001) as substrate. The absorbance values were read by a microplate reader (Bio-Rad Laboratories) at 405 nm after 45 min. In FIG. […] The absorbance of the mock sample is shown by the dotted line. The ELISA assay highlighted a higher affinity for the CEACAM1 antigen of the antibody belonging to the IgG1 subclass compared to the same antibody with the IgG4 (S228P) constant region. […]

[5] = target: T1, CEACAM1 antigen (Diatheva); assay: ELISA titration on coated CEACAM1; antibody purified after transient expression in HEK293T
Method: Purified antibodies were analysed for their reactivity against CEACAM1 antigen in ELISA titration assay as follow:
(§1) 96 wells microtiter plates (MAXISORB NUNC) were coated with 100 μl/well of CEACAM1 antigen (Diatheva) solution 1 μg/ml diluted in PBS pH 7.3 and incubated overnight (ON) at 37° C. Plates were washed five times with PBS added with 0.05% (v/v) Tween 20 pH 7.3 (PBST) (the same washing procedure was repeated after each incubation step during the assays) and then blocked with 1% (w/v) BSA dissolved in PBS (150 μl/well) and maintained at 37° C. for 60 min. After washing, serial dilutions of IgG1 or IgG4 in PBS containing 2% (w/v) not-fat dry milk (PBSM) were added to the plate (100 μl/well) and incubated for 90 min at 37° C. After washes, plates were incubated at 37° C. for 60 min with an anti-human Fc antibody HRP conjugated (Meridian) diluted 1:500 v/v in PBSM. Finally, the detection was performed after addition of 2,2′-azino-bis(3-ethylbenzthiazoline-6-sulphonic acid) (ABTS; Roche, 10102946001) as substrate. The absorbance values were read by a microplate reader (Bio-Rad Laboratories) at 405 nm after 45 min. In FIG. 4 are reported the results obtained with IgG1 (black line) and IgG4 (grey line) antibodies purified after transient expression in HEK293T cells. The absorbance of the mock sample is shown by the dotted line. […]

[6] = target: T1, CEACAM1 antigen (Diatheva); assay: ELISA titration on coated CEACAM1; antibody from stable clone 12
Method: as §1

| Binder | EC50 [1] [µg/mL] | fold of EC50 against IgG1 [2] [fold] | fold of EC50 against IgG4 [3] [fold] | EC50 [4] [µg/mL] | EC50 [5] [µg/mL] | EC50 [6] [µg/mL] |
| --- | --- | --- | --- | --- | --- | --- |
| scFvDIATHIS-1 (scFv, V domains shown, Single-chain fragment described in WO2011160859A1; Detection with an anti-His6 antibody implies a His6 tag) VH: not shown VL: SELTQDPAVSVALGQTVRITCQGDSLRSSYASWYRQRPGQAPVPVIYGKNNRPSGIPDRFSGSSSGNTASLTITGAQAEDEADYYCNSSYAWLPYVVFGGGTKLTVLG | 4.16 | ~4 | ~2 |  |  |  |
| IgG4 (S228P) anti-CEACAM1 mAb (antibody, not shown: large carriers, also called IgG4 clone 2) heavy: not shown light: SELTQDPAVSVALGQTVRITCQGDSLRSSYASWYRQRPGQAPVPVIYGKNNRPSGIPDRFSGSSSGNTASLTITGAQAEDEADYYCNSSYAWLPYVVFGGGTKLTVLG |  |  |  | 2.55 | 26.7 |  |
| DIA-12.3 IgG1 (antibody, The preparation is named under assay in each row; also called IgG1 anti-CEACAM1 mAb; IgG1 clone 12) heavy: not shown light: SELTQDPAVSVALGQTVRITCQGDSLRSSYASWYRQRPGQAPVPVIYGKNNRPSGIPDRFSGSSSGNTASLTITGAQAEDEADYYCNSSYAWLPYVVFGGGTKLTVLGGQPKANPTVTLFPPSSEELQANKATLVCLISDFYPGAVTVAWKADGSPVKAGVETTKPSKQSNNKYAASSYLSLTPEQWKSHRSYSCQVTHEGSTVEKTVAPTECS |  |  |  |  | 12.8 | 1.27 |
